Assay results as given in patent US20260209348A1 (University of California, published 2026).
Where a chain is given by its changes, count along the chain named.

B1: h6E6-002 (antibody, V domains shown)
VH: EVQLVESGGGLVKPGGSLRLSCAASGFTFSSYGISWVRQAPGKGLEWVSTISSGGGYTHYAESVKGRFTISRDNAKNSLYLQMNSLRAEDTAVYYCARHPRDFSYAMDYWGQGTTVTVSS
VL: EIVMTQSPATLSVSPGERATLSCRASQDVGHYLAWYQQKPGQAPRLLIYWASTRHTGIPARFSGSGSGTEFTLTISSLQSEDFAVYYCQQYNIYPWTFGQGTKVEIK
notes: also called clone 2
B2: h6E6-015 (antibody, V domains shown)
VH: B1 VH with S31N, I34L, A61V, E62T, M107L
VL: B1 VL with R24K, L33V
notes: also called clone 15
B3: h6E6-012 (antibody, V domains shown)
VH: B1 VH with S31A, I34A, T50S, A61V, M107Q
VL: B1 VL with H55A
notes: also called clone 12
B4: h6E6-030 (antibody, V domains shown)
VH: B1 VH with I34M, E62A
VL: B1 VL with R24K, H55A
notes: also called clone 30
B5: h6E6-032 (antibody, V domains shown)
VH: B1 VH with S31N, I34T
VL: B1 VL with R24K, H55A
notes: also called clone 32
B6: h6E6-003 (antibody, V domains shown)
VH: B1 VH with S31Q, I34T, M107H
VL: B1 VL
notes: also called clone 3
B7: h6E6-024 (antibody, V domains shown)
VH: B1 VH with S31E, I34M, A61V
VL: B1 VL with L33V, H55A
notes: also called clone 24
B8: h6E6-025 (antibody, V domains shown)
VH: B1 VH with S31H, I34H, A61V
VL: B1 VL with L33V, H55A
notes: also called clone 25
B9: h6E6-006 (antibody, V domains shown)
VH: B1 VH with S31T, I34M, E62T, M107H
VL: B1 VL with H55A
notes: also called clone 6
B10: h6E6-062 (antibody, V domains shown)
VH: B1 VH with I34H, H59Y, M107H
VL: B1 VL with R24K, H55A
notes: also called clone 62
B11: h6E6-009 (antibody, V domains shown)
VH: B1 VH with S31G, I34M, S35N, M107A
VL: B1 VL with R24K, H55A
notes: also called clone 9
B12: h6E6-054 (antibody, V domains shown)
VH: B1 VH with S31N, I34V, A61V, E62T, M107L
VL: B1 VL with R24K, L33V, H55A
notes: also called clone 54
B13: h6E6-076 (antibody, V domains shown)
VH: B1 VH with S31G, I34M, A61V, M107L
VL: B1 VL with R24K, H55A
notes: also called clone 76
B14: h6E6-050 (antibody, V domains shown)
VH: B1 VH with S31R, I34M, A61V, E62D, M107H
VL: B1 VL with R24K, H55A
notes: also called clone 50
B15: h6E6-051 (antibody, V domains shown)
VH: B1 VH with S31N, I34M, A61V, E62D, M107L
VL: B1 VL with R24K, L33V, H55A
notes: also called clone 51
B16: h6E6-047 (antibody, V domains shown)
VH: B1 VH with S31K, I34M, L45P, E62T, M107L
VL: B1 VL with L33V, H55A
notes: also called clone 47
B17: h6E6-017 (antibody, V domains shown)
VH: B1 VH with S31R, I34M, T50S
VL: B1 VL with R24K
notes: also called clone 17
B18: h6E6-049 (antibody, V domains shown)
VH: B1 VH with S31N, I34M, T50S
VL: B1 VL with R24K, L33V, H55A
notes: also called clone 49
B19: h6E6-045 (antibody, V domains shown)
VH: B1 VH with S31G, I34M, A61V, E62Q
VL: B1 VL with R24K, L33V, H55A
notes: also called clone 45
B20: h6E6-014 (antibody, V domains shown)
VH: B1 VH with I34M, S35N, A61V, E62D, M107T
VL: B1 VL with L33V
notes: also called clone 14
B21: h6E6-010 (antibody, V domains shown)
VH: B1 VH with S31N, I34M, A61V, E62A
VL: B1 VL with R24K, H55A
notes: also called clone 10
B22: h6E6-071 (antibody, V domains shown)
VH: B1 VH with S31H, I34M, M107F
VL: B1 VL with R24K
notes: also called clone 71
B23: h6E6-038 (antibody, V domains shown)
VH: B1 VH with S31R, I34M, E62P, L86P, M107Q
VL: B1 VL with R24K
notes: also called clone 38
B24: h6E6-033 (antibody, V domains shown)
VH: B1 VH with S31T, I34M, A61V, E62T
VL: B1 VL with R24K, L33V
notes: also called clone 33
B25: h6E6-016 (antibody, V domains shown)
VH: B1 VH with S31A, I34M, E62T, M107Q
VL: B1 VL with R24K, L33V
notes: also called clone 16
B26: h6E6-022 (antibody, V domains shown)
VH: B1 VH with S31K, I34T, E62P
VL: B1 VL with R24K, L33V, H55A
notes: also called clone 22
B27: h6E6-005 (antibody, V domains shown)
VH: B1 VH with S31G, I34L, E62A
VL: B1 VL with R24K, L33V, H55A
notes: also called clone 5
B28: h6E6-031 (antibody, V domains shown)
VH: B1 VH with I34M, A75D, M107I
VL: B1 VL with L33V
notes: also called clone 31
B29: h6E6-064 (antibody, V domains shown)
VH: B1 VH with S31H, T50S
VL: B1 VL with L33V, H55A
notes: also called clone 64
B30: h6E6-046 (antibody, V domains shown)
VH: B1 VH with S31R, E62T
VL: B1 VL with R24K, L33V
notes: also called clone 46
B31: h6E6-052 (antibody, V domains shown)
VH: B1 VH with S31H, I34T, M107I
VL: B1 VL with R24K, H55A
notes: also called clone 52
B32: h6E6-020 (antibody, V domains shown)
VH: B1 VH with S31K, I34V, E62P
VL: B1 VL with R24K, H55A
notes: also called clone 20
B33: h6E6-069 (antibody, V domains shown)
VH: B1 VH with S31K, I34V, A61V
VL: B1 VL with R24K, H55A
notes: also called clone 69
B34: h6E6-023 (antibody, V domains shown)
VH: B1 VH with I34M, E62P, M107L
VL: B1 VL with R24K, H55A
notes: also called clone 23
B35: h6E6-026 (antibody, V domains shown)
VH: B1 VH with S31R, I34M, E62A
VL: B1 VL with R24K, L33V
notes: also called clone 26

molecular target: human ROR2 (human, UniProt Q01974 34-403, limits assumed); assay: SPR
Sequence (Q01974 34-403 limits assumed): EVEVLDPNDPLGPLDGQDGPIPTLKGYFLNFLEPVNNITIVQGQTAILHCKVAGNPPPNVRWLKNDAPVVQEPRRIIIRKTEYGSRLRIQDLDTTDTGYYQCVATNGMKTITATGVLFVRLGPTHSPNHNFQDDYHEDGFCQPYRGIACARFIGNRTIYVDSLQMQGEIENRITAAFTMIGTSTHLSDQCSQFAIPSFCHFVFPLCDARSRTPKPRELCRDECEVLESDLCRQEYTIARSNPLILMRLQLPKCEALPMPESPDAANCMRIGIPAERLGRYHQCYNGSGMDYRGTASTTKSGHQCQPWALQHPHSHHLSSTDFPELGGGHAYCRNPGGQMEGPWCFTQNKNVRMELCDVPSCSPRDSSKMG
Outline: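 Binding of humanized anti-human ROR2 monoclonal antibodies to human ROR2 was measured by surface plasmon resonance. Affinity is given as the dissociation constant (Kd), in nM. The antibodies were produced by grafting murine complementarity-determining regions into human acceptor frameworks and converting the constant region to human IgG1.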

Row | Kd | Binder
1 | 0.284 nM | B1
2 | 0.386 nM | B2
3 | 1.4 nM | B3
4 | 0.221 nM | B4
5 | 0.479 nM | B5
6 | 0.321 nM | B6
7 | 0.605 nM | B7
8 | 0.509 nM | B8
9 | 0.166 nM | B9
10 | 0.839 nM | B10
11 | 0.215 nM | B11
12 | 0.178 nM | B12
13 | 0.203 nM | B13
14 | 0.482 nM | B14
15 | 0.16 nM | B15
16 | 0.086 nM | B16
17 | 4 nM | B17
18 | 1.4 nM | B18

Row | Kd | Binder
19 | 0.134 nM | B19
20 | 0.057 nM | B20
21 | 0.23 nM | B21
22 | 0.582 nM | B22
23 | 0.147 nM | B23
24 | 0.144 nM | B24
25 | 0.037 nM | B25
26 | 0.271 nM | B26
27 | 0.476 nM | B27
28 | 0.103 nM | B28
29 | 5.8 nM | B29
30 | 0.527 nM | B30
31 | 0.533 nM | B31
32 | 0.629 nM | B32
33 | 0.407 nM | B33
34 | 0.2 nM | B34
35 | 0.335 nM | B35
